From the supplement of paper PMC10065799, “High-throughput profiling of sequence recognition by tyrosine kinases and SH2 domains using bacterial peptide display” (eLife, 2023)

Experiments:
AncSZ = assay: phosphorylation enrichment, bacterial display (enrichment ratio); higher = better substrate or ligand; peptides without Tyr show the background
EPHB1 = EPHB1 (UniProt P54762); assay: as above
EPHB2 = EPHB2 (UniProt P29323); assay: as above
FGFR1 = FGFR1 (UniProt P11362); assay: as above
FGFR3 = FGFR3 (UniProt P22607); assay: as above
Sequence of FGFR3 (P22607 whole entry, looked up): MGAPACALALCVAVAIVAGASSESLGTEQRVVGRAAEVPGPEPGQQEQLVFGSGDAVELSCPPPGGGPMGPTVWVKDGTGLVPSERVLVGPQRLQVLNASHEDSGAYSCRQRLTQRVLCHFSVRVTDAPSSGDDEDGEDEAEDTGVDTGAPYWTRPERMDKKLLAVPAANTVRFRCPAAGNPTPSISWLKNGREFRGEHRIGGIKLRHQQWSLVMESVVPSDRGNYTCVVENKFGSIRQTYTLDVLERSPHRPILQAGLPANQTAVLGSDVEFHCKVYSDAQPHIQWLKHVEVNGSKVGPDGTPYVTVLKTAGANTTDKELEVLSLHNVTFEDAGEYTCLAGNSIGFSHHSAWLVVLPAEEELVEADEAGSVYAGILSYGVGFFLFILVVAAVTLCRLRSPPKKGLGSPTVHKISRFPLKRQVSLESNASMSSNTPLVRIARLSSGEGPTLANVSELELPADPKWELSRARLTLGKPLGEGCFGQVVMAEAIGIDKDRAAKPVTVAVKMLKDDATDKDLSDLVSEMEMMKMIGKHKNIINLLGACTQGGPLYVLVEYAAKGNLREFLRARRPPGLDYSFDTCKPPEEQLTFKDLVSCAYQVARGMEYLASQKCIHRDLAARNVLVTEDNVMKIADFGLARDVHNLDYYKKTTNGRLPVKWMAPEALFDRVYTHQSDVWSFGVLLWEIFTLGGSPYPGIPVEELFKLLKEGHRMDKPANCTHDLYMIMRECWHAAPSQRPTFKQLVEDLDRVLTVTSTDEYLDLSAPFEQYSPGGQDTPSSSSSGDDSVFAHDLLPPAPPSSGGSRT

Fer (mouse) = assay: as above
Fes = Fes (UniProt P07332); assay: as above
Fyn = Fyn (UniProt P06241); assay: as above
Hck = Hck (UniProt P08631); assay: as above
Sequence of Hck (P08631 whole entry, looked up): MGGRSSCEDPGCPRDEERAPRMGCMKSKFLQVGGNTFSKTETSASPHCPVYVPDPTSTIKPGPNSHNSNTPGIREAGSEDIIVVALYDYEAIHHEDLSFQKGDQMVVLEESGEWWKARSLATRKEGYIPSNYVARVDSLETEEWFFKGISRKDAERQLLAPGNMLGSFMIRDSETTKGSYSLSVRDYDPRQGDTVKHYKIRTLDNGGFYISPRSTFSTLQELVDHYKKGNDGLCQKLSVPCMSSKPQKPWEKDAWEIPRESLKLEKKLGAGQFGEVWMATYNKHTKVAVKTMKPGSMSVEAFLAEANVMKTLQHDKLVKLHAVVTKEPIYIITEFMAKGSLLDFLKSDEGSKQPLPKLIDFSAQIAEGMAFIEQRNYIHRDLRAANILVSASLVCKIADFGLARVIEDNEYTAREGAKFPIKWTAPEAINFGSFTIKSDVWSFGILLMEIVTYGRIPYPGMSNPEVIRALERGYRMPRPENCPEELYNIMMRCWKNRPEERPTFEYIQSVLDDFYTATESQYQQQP

Jak2 = Jak2 (UniProt O60674); assay: as above
MERTK = MERTK (UniProt Q12866); assay: as above
Sequence of MERTK (Q12866 whole entry, looked up): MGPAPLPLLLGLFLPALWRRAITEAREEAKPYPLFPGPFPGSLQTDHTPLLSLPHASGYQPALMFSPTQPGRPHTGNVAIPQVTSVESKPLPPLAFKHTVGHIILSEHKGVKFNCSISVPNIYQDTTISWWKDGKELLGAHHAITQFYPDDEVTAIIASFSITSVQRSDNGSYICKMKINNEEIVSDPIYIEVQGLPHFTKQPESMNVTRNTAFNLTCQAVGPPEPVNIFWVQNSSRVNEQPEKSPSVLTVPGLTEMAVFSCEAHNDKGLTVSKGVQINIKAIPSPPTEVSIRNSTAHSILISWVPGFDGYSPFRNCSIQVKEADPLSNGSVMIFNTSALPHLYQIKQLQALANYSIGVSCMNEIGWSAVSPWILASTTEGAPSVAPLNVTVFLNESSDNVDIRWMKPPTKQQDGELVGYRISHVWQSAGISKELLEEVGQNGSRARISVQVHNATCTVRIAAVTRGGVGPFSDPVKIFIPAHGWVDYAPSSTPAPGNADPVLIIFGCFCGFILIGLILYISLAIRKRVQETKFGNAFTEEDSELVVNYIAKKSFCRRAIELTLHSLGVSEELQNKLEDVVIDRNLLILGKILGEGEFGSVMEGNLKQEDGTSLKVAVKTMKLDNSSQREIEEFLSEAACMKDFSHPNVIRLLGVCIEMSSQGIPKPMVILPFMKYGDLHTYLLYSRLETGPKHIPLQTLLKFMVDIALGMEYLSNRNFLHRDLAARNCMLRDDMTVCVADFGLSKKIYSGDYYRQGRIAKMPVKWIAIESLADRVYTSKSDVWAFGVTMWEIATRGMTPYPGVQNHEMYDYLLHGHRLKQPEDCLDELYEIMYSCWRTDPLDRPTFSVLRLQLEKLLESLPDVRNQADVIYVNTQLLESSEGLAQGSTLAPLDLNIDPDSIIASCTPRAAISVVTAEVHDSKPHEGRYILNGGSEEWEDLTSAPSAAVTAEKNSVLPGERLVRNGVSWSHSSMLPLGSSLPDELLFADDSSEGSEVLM

c-Abl (mouse) = assay: as above
c-Src = assay: as above
Grb2 SH2 = Grb2 SH2 (UniProt P62993); assay: SH2 binding enrichment of the phosphorylated peptide, bacterial display (enrichment ratio); higher = better substrate or ligand; peptides without Tyr show the background
Sequence of Grb2 SH2 (P62993 whole entry, looked up): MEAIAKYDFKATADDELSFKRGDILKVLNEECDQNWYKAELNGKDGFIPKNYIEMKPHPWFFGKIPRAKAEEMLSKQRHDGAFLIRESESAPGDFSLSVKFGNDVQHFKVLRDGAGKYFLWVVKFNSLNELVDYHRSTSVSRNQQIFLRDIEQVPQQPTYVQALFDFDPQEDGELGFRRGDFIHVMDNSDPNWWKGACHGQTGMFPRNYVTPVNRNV

SHP2-C SH2 = assay: as above
c-Src SH2 = assay: as above
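Wherever SH2 binding enrichment of the phosphorylated peptide, bacterial display is given: peptide library displayed on the E. coli surface as eCPX fusions, selected cells deep-sequenced, score is each peptide's frequency after selection divided by its frequency in the input.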
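Wherever phosphorylation enrichment, bacterial display is given: 11-residue human phosphosite peptides and single-mutation variants displayed on the E. coli surface, counted by deep sequencing, each peptide's frequency after selection divided by its frequency in the unselected input library; frequency after pTyr selection over input frequency; kinase dosed for 20-30% of maximal phosphorylation in three min.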

Sequence of EPHB2 (P29323 whole entry, looked up): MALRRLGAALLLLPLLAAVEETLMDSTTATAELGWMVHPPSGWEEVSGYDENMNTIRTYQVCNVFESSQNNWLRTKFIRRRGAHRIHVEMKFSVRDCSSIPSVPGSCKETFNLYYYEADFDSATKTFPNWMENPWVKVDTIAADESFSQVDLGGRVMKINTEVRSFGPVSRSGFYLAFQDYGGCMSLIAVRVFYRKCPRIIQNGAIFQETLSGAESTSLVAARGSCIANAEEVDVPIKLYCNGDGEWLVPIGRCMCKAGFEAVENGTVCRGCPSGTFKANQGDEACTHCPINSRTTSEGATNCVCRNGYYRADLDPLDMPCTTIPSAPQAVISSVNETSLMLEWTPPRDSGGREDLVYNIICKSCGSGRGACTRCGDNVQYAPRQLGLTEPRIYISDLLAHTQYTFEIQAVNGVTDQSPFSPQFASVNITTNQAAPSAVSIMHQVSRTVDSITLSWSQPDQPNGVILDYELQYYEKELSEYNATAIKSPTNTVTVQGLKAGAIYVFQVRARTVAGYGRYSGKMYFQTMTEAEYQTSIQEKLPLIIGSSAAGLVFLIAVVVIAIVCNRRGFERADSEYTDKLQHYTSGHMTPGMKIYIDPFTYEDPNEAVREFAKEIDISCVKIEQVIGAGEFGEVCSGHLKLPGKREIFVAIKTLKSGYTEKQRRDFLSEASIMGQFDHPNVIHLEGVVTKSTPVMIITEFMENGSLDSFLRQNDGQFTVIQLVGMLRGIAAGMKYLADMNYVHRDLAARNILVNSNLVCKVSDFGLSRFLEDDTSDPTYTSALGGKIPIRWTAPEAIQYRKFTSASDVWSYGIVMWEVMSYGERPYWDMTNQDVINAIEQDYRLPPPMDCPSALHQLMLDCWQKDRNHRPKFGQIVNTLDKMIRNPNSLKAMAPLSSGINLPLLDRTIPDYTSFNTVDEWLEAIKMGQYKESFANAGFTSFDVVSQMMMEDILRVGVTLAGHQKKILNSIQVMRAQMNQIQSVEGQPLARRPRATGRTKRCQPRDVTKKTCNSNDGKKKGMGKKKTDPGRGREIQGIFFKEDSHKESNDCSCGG
Sequence of EPHB1 (P54762 whole entry, looked up): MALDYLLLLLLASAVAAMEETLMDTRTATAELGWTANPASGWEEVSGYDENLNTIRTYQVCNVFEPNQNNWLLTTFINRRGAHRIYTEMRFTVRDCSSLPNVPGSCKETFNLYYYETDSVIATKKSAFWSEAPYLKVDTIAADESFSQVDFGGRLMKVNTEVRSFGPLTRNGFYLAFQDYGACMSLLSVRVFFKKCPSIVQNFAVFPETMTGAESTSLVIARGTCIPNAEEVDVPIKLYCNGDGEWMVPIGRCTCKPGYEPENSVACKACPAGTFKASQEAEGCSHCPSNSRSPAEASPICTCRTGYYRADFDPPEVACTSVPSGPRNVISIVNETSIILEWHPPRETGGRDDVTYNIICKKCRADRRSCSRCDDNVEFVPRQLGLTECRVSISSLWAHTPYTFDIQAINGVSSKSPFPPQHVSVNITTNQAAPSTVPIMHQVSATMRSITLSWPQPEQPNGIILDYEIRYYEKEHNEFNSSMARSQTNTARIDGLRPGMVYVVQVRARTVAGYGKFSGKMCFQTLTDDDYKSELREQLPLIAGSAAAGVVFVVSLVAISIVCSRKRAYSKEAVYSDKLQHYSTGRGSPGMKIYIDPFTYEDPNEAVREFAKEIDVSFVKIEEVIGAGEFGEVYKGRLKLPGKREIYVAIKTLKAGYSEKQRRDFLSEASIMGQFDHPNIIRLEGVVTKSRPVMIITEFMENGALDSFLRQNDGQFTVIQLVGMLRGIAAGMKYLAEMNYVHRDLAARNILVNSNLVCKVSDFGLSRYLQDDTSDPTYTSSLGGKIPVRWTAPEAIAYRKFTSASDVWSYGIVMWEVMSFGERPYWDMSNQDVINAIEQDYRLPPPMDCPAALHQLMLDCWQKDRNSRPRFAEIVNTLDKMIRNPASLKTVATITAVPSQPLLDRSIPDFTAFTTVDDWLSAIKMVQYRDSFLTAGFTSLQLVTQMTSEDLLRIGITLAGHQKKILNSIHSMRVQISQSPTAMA

| Sequence | phosphorylation enrichment (AncSZ) | phosphorylation enrichment (EPHB1) | phosphorylation enrichment (EPHB2) | phosphorylation enrichment (FGFR1) | phosphorylation enrichment (FGFR3) | phosphorylation enrichment (Fer (mouse)) | phosphorylation enrichment (Fes) | phosphorylation enrichment (Fyn) | phosphorylation enrichment (Hck) | phosphorylation enrichment (Jak2) | phosphorylation enrichment (MERTK) | phosphorylation enrichment (c-Abl (mouse)) | phosphorylation enrichment (c-Src) | SH2 binding enrichment (Grb2 SH2) | SH2 binding enrichment (SHP2-C SH2) | SH2 binding enrichment (c-Src SH2) |
| --- | --- | --- | --- | --- | --- | --- | --- | --- | --- | --- | --- | --- | --- | --- | --- | --- |
| ISGGGYRACPA [FGB_Y71_R74C] | 0.915 | 0.51 | 0.404 | 0.469 | 0.52 | 0.495 | 0.818 | 0.44 | 0.432 | 0.61 | 0.409 | 0.58 | 0.361 | 0.958 | 0.715 | 0.533 |
| DLDFTYIFPNI [PTEN_Y27_L25F_YF] | 3.5 | 0.996 | 0.618 | 2.87 | 2.27 | 0.627 | 1.33 | 4.4 | 1.16 | 1.83 | 1 | 0.8 | 2.15 | 0.758 | 0.435 | 0.47 |
| ARSHIYTFASC [MEFV_Y741] | 0.932 | 0.488 | 0.533 | 0.491 | 0.653 | 0.563 | 1 | 1.41 | 0.671 | 0.866 | 0.808 | 0.849 | 1.3 | 0.834 | 0.763 | 1.66 |
| NIRKKYYRAIL [CHD7_Y1217_Q1214R] | 0.569 | 0.455 | 0.311 | 0.501 | 0.341 | 0.388 | 0.547 | 0.443 | 0.395 | 0.494 | 0.507 | 0.462 | 0.442 | 0.599 | 0.426 | 0.368 |
| CENCHYPIVPL [LCK_Y25] | 0.698 | 0.63 | 0.485 | 0.542 | 0.58 | 0.588 | 0.749 | 0.463 | 0.463 | 0.643 | 0.479 | 0.567 | 0.454 | 0.943 | 0.58 | 0.841 |
| SVKVYYKKCWF [EPHA7_Y202_S207F] | 1.12 | 0.553 | 0.531 | 0.432 | 0.596 | 0.433 | 1.14 | 0.375 | 0.382 | 1.08 | 0.356 | 0.856 | 0.448 | 0.712 | 0.657 | 0.501 |
| DSRRDYVSQFE [APOA1_Y53_G50R] | 0.762 | 0.456 | 0.447 | 0.542 | 0.503 | 0.387 | 0.709 | 0.409 | 0.478 | 0.645 | 0.464 | 0.567 | 0.43 | 0.803 | 0.524 | 0.531 |
| NTTIHYNFMCN [TP53_Y234_C229N_YF] | 1.14 | 0.698 | 0.618 | 0.542 | 0.828 | 0.557 | 1.24 | 0.495 | 0.511 | 1.02 | 0.427 | 0.782 | 0.46 | 0.848 | 0.701 | 0.598 |
| DENWFYTRAAF [RPS19_Y54_S59F] | 1.25 | 0.681 | 0.594 | 0.586 | 0.786 | 0.571 | 1.32 | 0.47 | 0.629 | 1.48 | 0.55 | 0.868 | 0.534 | 0.73 | 0.96 | 0.571 |
| DVFVSYDFGKS [SORL1_Y139_YF] | 0.939 | 0.452 | 0.595 | 0.416 | 0.598 | 0.485 | 0.907 | 0.383 | 0.636 | 0.906 | 0.437 | 0.78 | 0.468 | 0.863 | 0.641 | 0.464 |
| VMTSKYRGGGG [HBA1_Y141_L137M] | 0.433 | 0.332 | 0.427 | 0.444 | 0.467 | 0.378 | 0.491 | 0.378 | 0.39 | 0.424 | 0.36 | 0.384 | 0.363 | 0.834 | 0.792 | 0.691 |
| TAALWYIYSHT [ENG_Y612] | 1.15 | 0.794 | 0.832 | 0.497 | 0.689 | 0.586 | 1.14 | 1.52 | 1.3 | 0.984 | 0.878 | 0.748 | 1.82 | 0.781 | 0.918 | 0.6 |
| LDFPEYNGVDR [CASQ1_Y43_D44N] | 2.84 | 1.09 | 1.04 | 0.986 | 1.61 | 1 | 3.29 | 1.43 | 1.16 | 3.51 | 2.17 | 1.95 | 2.17 | 0.541 | 0.646 | 0.975 |
| SKQGKYLNWDA [ATM_Y54] | 0.79 | 0.384 | 0.507 | 0.437 | 0.527 | 0.454 | 0.856 | 0.396 | 0.427 | 0.666 | 0.399 | 0.491 | 0.445 | 6.01 | 0.82 | 0.653 |
| RGEKQYLATPL [ALOX12_Y295_A298T] | 0.861 | 0.598 | 0.342 | 1.06 | 0.711 | 0.571 | 1.01 | 0.665 | 0.484 | 0.931 | 0.53 | 1.02 | 0.812 | 0.784 | 0.766 | 0.569 |
| ANARMYGVLPW [PLP1_Y207_D203N] | 0.74 | 0.513 | 0.676 | 0.462 | 0.506 | 0.474 | 0.783 | 4.99 | 6.06 | 0.616 | 0.734 | 0.846 | 3.85 | 0.814 | 0.749 | 0.503 |
| MSGDVYSTDYY [NTRK2_Y702_R699G] | 1.99 | 1.58 | 1.99 | 3.16 | 2.29 | 0.863 | 1.16 | 4.31 | 2.39 | 1.05 | 6.54 | 0.784 | 4.64 | 0.778 | 0.874 | 0.622 |

| Sequence | phosphorylation enrichment (AncSZ) | phosphorylation enrichment (EPHB1) | phosphorylation enrichment (EPHB2) | phosphorylation enrichment (FGFR1) | phosphorylation enrichment (FGFR3) | phosphorylation enrichment (Fer (mouse)) | phosphorylation enrichment (Fes) | phosphorylation enrichment (Fyn) | phosphorylation enrichment (Hck) | phosphorylation enrichment (Jak2) | phosphorylation enrichment (MERTK) | phosphorylation enrichment (c-Abl (mouse)) | phosphorylation enrichment (c-Src) | SH2 binding enrichment (Grb2 SH2) | SH2 binding enrichment (SHP2-C SH2) | SH2 binding enrichment (c-Src SH2) |
| --- | --- | --- | --- | --- | --- | --- | --- | --- | --- | --- | --- | --- | --- | --- | --- | --- |
| CEHRGCLYLAI [TEK_Y897_Y897C] | 1.04 | 0.556 | 0.506 | 0.405 | 0.685 | 0.44 | 1.09 | 0.372 | 0.466 | 1.05 | 0.661 | 0.671 | 1.05 | 0.811 | 0.753 | 0.554 |
| AHAGEYGAEAL [HBA1_Y25] | 0.675 | 0.368 | 0.394 | 0.35 | 0.517 | 0.382 | 0.816 | 0.387 | 0.464 | 0.66 | 0.343 | 0.629 | 0.392 | 0.683 | 0.676 | 0.396 |
| QTLTDYDIRFF [CSNK2A1_Y131_YF] | 1.16 | 0.626 | 0.677 | 0.569 | 0.888 | 0.604 | 1.48 | 0.709 | 0.691 | 0.998 | 0.531 | 0.737 | 0.481 | 0.794 | 0.651 | 0.413 |
| DVLEFCNSKKT [PAK1_Y131_Y131C] | 0.83 | 0.459 | 0.483 | 0.428 | 0.581 | 0.436 | 0.861 | 0.423 | 0.401 | 0.806 | 0.433 | 0.532 | 0.535 | 1 | 0.693 | 0.403 |
| ADGLEYPRTGL [MMUT_Y287_S288P] | 0.722 | 0.425 | 0.55 | 0.414 | 0.59 | 0.47 | 0.835 | 0.508 | 0.47 | 0.495 | 0.319 | 0.528 | 0.288 | 0.679 | 0.598 | 0.465 |
| VDASYYGGRGV [ANTXR2_Y381] | 0.702 | 0.708 | 0.386 | 0.772 | 0.647 | 0.46 | 0.665 | 0.786 | 1.92 | 0.804 | 0.775 | 0.698 | 0.999 | 0.738 | 0.638 | 0.471 |
| GLSDLYVKIHL [SYT2_Y309_P308L] | 1.26 | 0.826 | 0.615 | 0.452 | 0.804 | 0.705 | 1.45 | 0.623 | 0.613 | 1.38 | 0.428 | 0.94 | 0.495 | 1.04 | 0.599 | 0.567 |
| VMTVDYSKTVV [SETD2_Y770] | 0.638 | 0.379 | 0.417 | 0.456 | 0.485 | 0.493 | 0.749 | 0.451 | 0.434 | 0.615 | 0.35 | 0.574 | 0.319 | 0.937 | 1.19 | 0.528 |
| EWQQIYTYDSG [JUP_Y20_T19I] | 1.6 | 1.69 | 0.971 | 6.84 | 5.58 | 4.55 | 1.18 | 8.85 | 6.09 | 1 | 7.85 | 0.75 | 6.89 | 0.885 | 0.734 | 0.968 |
| DQNVEYKGTVW [FHL1_Y117] | 0.95 | 0.558 | 0.545 | 0.455 | 0.755 | 0.425 | 1.17 | 0.496 | 0.466 | 0.938 | 0.496 | 0.843 | 0.488 | 0.866 | 0.577 | 0.424 |
| KNEVLYDGENH [ARFGEF1_Y314] | 0.943 | 0.403 | 0.525 | 0.399 | 0.475 | 0.401 | 0.836 | 0.422 | 0.436 | 0.763 | 0.398 | 0.668 | 0.418 | 0.978 | 0.687 | 0.665 |
| KANEYYPVVLI [ADAMTS18_Y765] | 1.97 | 3.64 | 3.11 | 11.2 | 9.02 | 2.12 | 0.813 | 0.572 | 0.693 | 2.79 | 0.541 | 1.6 | 0.655 | 0.683 | 0.625 | 0.404 |
| NTGDFYDLFGG [PTPN11_Y63_YF] | 1.23 | 0.587 | 0.632 | 0.582 | 0.709 | 1.82 | 1.06 | 4.89 | 3.44 | 0.985 | 2.97 | 0.773 | 4.45 | 1.14 | 0.628 | 0.615 |
| QMQNPYSSHSS [MUC13_Y501_R503S] | 0.625 | 0.546 | 0.718 | 0.636 | 0.611 | 1.26 | 0.659 | 1.15 | 0.449 | 0.467 | 0.432 | 0.446 | 0.818 | 0.921 | 0.526 | 0.49 |
| ARVANYHRDGP [CAT_Y386_Q387H] | 0.523 | 0.309 | 0.378 | 0.519 | 0.394 | 0.372 | 0.514 | 0.44 | 0.36 | 0.491 | 0.385 | 0.457 | 0.395 | 0.776 | 0.769 | 0.49 |
| RMLREYQELMS [KRT74_Y425] | 0.821 | 0.66 | 0.432 | 0.95 | 0.555 | 0.357 | 0.837 | 0.699 | 0.532 | 0.611 | 0.527 | 0.663 | 0.57 | 1.13 | 0.962 | 5.24 |
